Key:
HeLa Kyoto [1] = test: solubility change mitosis vs G1/S (difference of NP-40 vs SDS log2 ratios) (log2 ratio difference); higher = more soluble in mitosis
HeLa Kyoto [2] = test: solubility in G1/S (NP-40 vs SDS abundance) (log2 ratio); higher = more soluble; conditions: cell cycle stage: G1/S
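For solubility change mitosis vs G1/S (difference of NP-40 vs SDS log2 ratios) in this document: synchronized HeLa Kyoto cells (double thymidine block for G1/S, nocodazole release for mitosis), protein amounts in NP-40 versus SDS lysates quantified by mass spectrometry, three biological replicates.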
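For solubility in G1/S (NP-40 vs SDS abundance) in this document: HeLa Kyoto cells arrested at G1/S by double thymidine block, proteins quantified by TMT10plex mass spectrometry in mild NP-40 versus SDS extracts, three biological replicates.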

Chain of NCOA2 (chain, as listed by the source): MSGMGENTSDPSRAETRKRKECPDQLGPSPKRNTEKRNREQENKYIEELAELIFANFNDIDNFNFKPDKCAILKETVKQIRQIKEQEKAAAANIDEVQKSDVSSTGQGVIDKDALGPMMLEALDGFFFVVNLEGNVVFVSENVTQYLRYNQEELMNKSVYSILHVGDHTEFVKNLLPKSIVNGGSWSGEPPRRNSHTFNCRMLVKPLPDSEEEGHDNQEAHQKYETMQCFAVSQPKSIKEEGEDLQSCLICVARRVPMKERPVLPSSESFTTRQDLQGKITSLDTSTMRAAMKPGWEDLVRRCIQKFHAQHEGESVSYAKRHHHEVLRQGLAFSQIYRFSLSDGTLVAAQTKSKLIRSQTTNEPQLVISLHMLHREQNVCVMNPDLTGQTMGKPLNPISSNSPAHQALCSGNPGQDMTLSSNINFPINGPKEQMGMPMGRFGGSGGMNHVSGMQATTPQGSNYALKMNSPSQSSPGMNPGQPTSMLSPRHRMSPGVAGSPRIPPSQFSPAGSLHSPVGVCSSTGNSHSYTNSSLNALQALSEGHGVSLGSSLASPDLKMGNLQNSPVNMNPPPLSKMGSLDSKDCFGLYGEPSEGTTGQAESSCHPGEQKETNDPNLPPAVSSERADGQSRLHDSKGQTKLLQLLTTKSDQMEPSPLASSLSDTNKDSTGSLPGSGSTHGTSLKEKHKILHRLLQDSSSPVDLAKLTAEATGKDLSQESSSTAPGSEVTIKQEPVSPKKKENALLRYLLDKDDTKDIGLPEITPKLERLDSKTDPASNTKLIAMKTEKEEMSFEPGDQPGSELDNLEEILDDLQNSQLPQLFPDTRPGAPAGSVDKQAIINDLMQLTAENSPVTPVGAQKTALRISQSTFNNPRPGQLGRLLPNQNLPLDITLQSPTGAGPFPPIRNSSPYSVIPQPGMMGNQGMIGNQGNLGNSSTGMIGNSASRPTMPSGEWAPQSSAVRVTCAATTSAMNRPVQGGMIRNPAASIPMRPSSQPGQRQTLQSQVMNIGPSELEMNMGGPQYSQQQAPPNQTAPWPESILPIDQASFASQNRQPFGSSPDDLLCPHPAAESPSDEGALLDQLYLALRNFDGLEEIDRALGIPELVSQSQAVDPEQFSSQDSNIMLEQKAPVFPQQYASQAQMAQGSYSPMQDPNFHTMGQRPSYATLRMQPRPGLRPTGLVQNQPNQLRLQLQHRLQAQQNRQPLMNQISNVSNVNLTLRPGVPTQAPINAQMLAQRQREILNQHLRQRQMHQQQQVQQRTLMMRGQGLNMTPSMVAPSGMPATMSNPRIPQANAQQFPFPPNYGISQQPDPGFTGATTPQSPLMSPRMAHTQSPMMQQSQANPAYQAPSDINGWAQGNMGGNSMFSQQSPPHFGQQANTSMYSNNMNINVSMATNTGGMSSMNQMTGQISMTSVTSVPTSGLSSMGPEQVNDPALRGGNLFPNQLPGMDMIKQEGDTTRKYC

## MSGSCAAPGPGSGSSPAACRFAHYFVLCGIDADSGLEPDELAGENFDQSPLRRTFKSKVLAHYPQNIEWNPFDQDAVNMLCMPKGLSFRTQTDNKDPQFHSFIITREDGSRTYGFVLTFYEEVTSKQICTAMQTLYQMHNAEHYSSVYASSSCSMDSLASSLDEGDTTSLLKLQRYNSYDISRDTLYVSKSICLITPLPFMQACKKFLIQLYKAVTSQQPPPLPLESYIHNILYEVPLPPPGRSLKFYGVYEPVICQRPGPSELPLSDYPLREAFELLGLENLVQVFTCVLLEMQILLYSQDYQRLMTVAEGITTLLFPFQWQHVYVPILPASLLHFLDAPVPYLMGLQSKEGTDRSKLELPQEANLCFVDIDNHFIELPEEFPQFPNKVDFIQELSEVLVQFGIPPEGSLHCSESTSKLKNMVLKDLVNDKKNGNVCTNNISMYELLKGNETIARLQALAKRTGVAVEKMDLSASLGEKDKDLKLHCEEAELRDYQLNVQLREVFANRFTQMFADYEAFVIQTAQDMESWLTNREQMQNFDKASFLSDQPEPYLPFLSRFIETQMFATFIDNKIMSQWEEKDPLLRVFDTRIDKIRLYNVRAPTLRTSIYQKCSTLKEAAQSIEQRLMKMDHTAIHPHLLDMKIGQGKYEQGFFPKLQSDVLATGPTSNNRWVSRSATAQRRKERLRQHSEHVGLDNDLREKYMQEARSLGKNLRQPKLSDLSPAVIAQTNCKFVEGLLKECRMKTKRMLVEKMGHEAVELGHGEANITGLEENTLIASLCDLLERIWSHGLQVKQGKSALWSHLIQFQDREEKQEHLAESPVALGPERRKSDSGVMLPTLRVSLIQDMRHIQNMSEIKTDVGRARAWIRLSLEKKLLSQHLKQLLSNQPLTKKLYKRYAFLRCEEEREQFLYHLLSLNAVDYFCFTSVFTTIMIPYRSVIIPIKKLSNAIITSNPWICVSGELGDTGVMQIPKNLLEMTFECQNLGKLTTVQIGHDNSGLLAKWLVDCVMVRNEITGHTYRFPCGRWLGKGIDDGSLERILIGELMTSASDEDLVKQCRTPPQQKSPTTARRLSITSLTGKNNKPNAGQIQEGIGEAVNNIVKHFHKPEKERGSLTVLLCGENGLVAALEQVFHHGFKSARIFHKNVFIWDFIEKVVAYFETTDQILDNEDDVLIQKSSCKTFCHYVNAINTAPRNIGKDGKFQILVCLGTRDRLLPQWIPLLAECPAITRMYEESALLRDRMTVNSLIRILQTIQDFTIVLEGSLIKGVDV [DENND5B]
HeLa Kyoto [1]
  solubility change mitosis (log2): -0.179
HeLa Kyoto [2]
  solubility in G1/S (log2): -0.149

## MQREEKQLEASLDALLSQVADLKNSLGSFICKLENEYGRLTWPSVLDSFALLSGQLNTLNKVLKHEKTPLFRNQVIIPLVLSPDRDEDLMRQTEGRVPVFSHEVVPDHLRTKPDPEVEEQEKQLTTDAARIGADAAQKQIQSLNKMCSNLLEKISKEERESESGGLRPNKQTFNPTDTNALVAAVAFGKGLSNWRPSGSSGPGQAGQPGAGTILAGTSGLQQVQMAGAPSQQQPMLSGVQMAQAGQPGKMPSGIKTNIKSASMHPYQR [MED8]
HeLa Kyoto [1]
  solubility change mitosis (log2): 0.105
HeLa Kyoto [2]
  solubility in G1/S (log2): 0.142

## CEP290
HeLa Kyoto [1]
  solubility change mitosis (log2): 0.0705
HeLa Kyoto [2]
  solubility in G1/S (log2): 0.253

## MQPGSSRCEEETPSLLWGLDPVFLAFAKLYIRDILDMKESRQVPGVFLYNGHPIKQVDVLGTVIGVRERDAFYSYGVDDSTGVINCICWKKLNTESVSAAPSAARELSLTSQLKKLQETIEQKTKIEIGDTIRVRGSIRTYREEREIHATTYYKVDDPVWNIQIARMLELPTIYRKVYDQPFHSSALEKEEALSNPGALDLPSLTSLLSEKAKEFLMENRVQSFYQQELEMVESLLSLANQPVIHSASSDQVNFKKDTTSKAIHSIFKNAIQLLQEKGLVFQKDDGFDNLYYVTREDKDLHRKIHRIIQQDCQKPNHMEKGCHFLHILACARLSIRPGLSEAVLQQVLELLEDQSDIVSTMEHYYTAF [OBFC1]
HeLa Kyoto [1]
  solubility change mitosis (log2): -0.0863
HeLa Kyoto [2]
  solubility in G1/S (log2): 0.0155

## NCOA2
HeLa Kyoto [1]
  solubility change mitosis (log2): -0.129
HeLa Kyoto [2]
  solubility in G1/S (log2): 0.178

## MVPAAGRRPPRVMRLLGWWQVLLWVLGLPVRGVEVAEESGRLWSEEQPAHPLQVGAVYLGEEELLHDPMGQDRAAEEANAVLGLDTQGDHMVMLSVIPGEAEDKVSSEPSGVTCGAGGAEDSRCNVRESLFSLDGAGAHFPDREEEYYTEPEVAESDAAPTEDSNNTESLKSPKVNCEERNITGLENFTLKILNMSQDLMDFLNPNGSDCTLVLFYTPWCRFSASLAPHFNSLPRAFPALHFLALDASQHSSLSTRFGTVAVPNILLFQGAKPMARFNHTDRTLETLKIFIFNQTGIEAKKNVVVTQADQIGPLPSTLIKSVDWLLVFSLFFLISFIMYATIRTESIRWLIPGQEQEHVE [TXNDC15]
HeLa Kyoto [1]
  solubility change mitosis (log2): -0.0906
HeLa Kyoto [2]
  solubility in G1/S (log2): 0.719

From the supplement of paper PMC5998384
